{"source": "patent US20050143472A1", "about": "“Novel treatment for pathologies associated with oxidative damage” (priority 2002, published 2005)", "proteins": {"B1": {"name": "mPAO (Mus musculus) (protein)", "chain": "MAFPGPRVLVVGSGIAGLGAAQKLCSHRAAPHLRVLEATASAGGRIRSERCFGGVVELGAHWIHGPSQDNPVFQLAAEFGLLGEKELSEENQLVDTGGHVALPSMIWSSSGTSVSLELMTEMARLFYGLIERTREFLNESETPMASVGEFLKKEISQQVASWTEDDEDTRKRKLAILNTFFNIKCCVSGTHSMDLVALAPFGEYTVLPGLDCILAGGYQGLTDRILASLPKDTVAFDKPVKTIHWNGSFQEAAFPGETFPVLVECEDGARLPAHHVIVTVPLGFSKEHQDTFFEPPLPAKKAEAIKKLGFGTNNKIFLEFEEPFWEPDCQFIQVVWEDTSPLQDTALSLQDTWFKKLIGFLVQPSFESSHVLCGFIAGLESEFMETLSDEEVLLSLTQVLRRVTGNPQLPAAKSVLSSRWHSAPYTRGSYSYVAVGSTGDDLDLMAQPLPADGTGTQLQVLFAGEATHRTFYSTTHGALLSGWREADRLIGLWDSQAEQSRPRL"}}, "substrate": "NCCCNCCCCNCCCN", "assay": "purified protein, by the assay type", "settings": "other: apparent value, air-saturated 50 mM KH2PO4/KOH buffer pH 7.6, [O2] 237 μM"}
{"protein": "B1", "values": [{"measurement": "kcat", "result": 0.175, "unit": "s⁻¹"}, {"measurement": "kcat/Km", "result": 247, "unit": "M⁻¹ s⁻¹"}]}
